Reference: patent US20220153875A1, “ANTIGEN-BINDING MOLECULE CONTAINING ANTIGEN-BINDING DOMAIN OF WHICH BINDING ACTIVITY TO ANTIGEN IS CHANGED DEPENDING ON MTA, AND LIBRARY FOR OBTAINING SAID ANTIGEN-BINDING DOMAIN” (Chugai Seiyaku Kabushiki Kaisha, priority 2019, published 2022)

What was measured:
hIL-6R [1] = target: T1, hIL-6R (Homo sapiens, UniProt P08887); assay: Biacore T200: hIL-6R binding amount at different MTA concentrations; settings: MTA 0.1, 1, 10, 100 μM, 25° C.
T1 sequence (P08887 20-357): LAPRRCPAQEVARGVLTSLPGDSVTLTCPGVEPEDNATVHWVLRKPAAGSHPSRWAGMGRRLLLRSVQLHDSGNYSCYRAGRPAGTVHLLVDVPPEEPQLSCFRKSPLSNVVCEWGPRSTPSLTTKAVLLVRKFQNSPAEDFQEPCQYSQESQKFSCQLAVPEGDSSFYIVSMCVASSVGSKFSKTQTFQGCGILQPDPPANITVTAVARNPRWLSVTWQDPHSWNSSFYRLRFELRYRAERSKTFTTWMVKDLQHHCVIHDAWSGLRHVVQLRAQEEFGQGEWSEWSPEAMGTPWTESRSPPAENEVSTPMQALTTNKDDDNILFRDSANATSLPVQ
Method: For the MTA-dependently binding anti-hIL-6R antibody cloned in Example (4-5) (6RS2T007H-F760mnN17/6RS2T007L-KT0), the change in the amount of antigen binding dependent on MTA concentration was assessed using Biacore T200 (GE Healthcare). The measurement was done at 25° C., using 20 mM ACES added with MTA at final concentrations of 0.1, 1, 10, and 100 μM, 150 mM NaCl, 0.05% (w/v) Tween20, pH 7.4 as the running buffer Series S Sensor Chip CM4 was used as the sensor chip, ProA/G was immobilized by amine coupling with the antibody mobilised on the top of that, after which hIL-6R was allowed to interact as an analyte to measure the change in binding amount between antigen-antibody. The running buffer was used to dilute the antigen.

[2] = Biacore T200: binding of humanized SMB0002 to MTA; settings: 37° C.; read-out: Affinity KD, MTA
Method: (§1) CaptureSelect™ Biotin Anti-IgG-CH1 Conjugate (Thermo fisher scientific), which is a biotinylated anti-human IgG CH1 molecule, was bound to Sensor Chip SA (GE Healthcare) onto which streptavidin was immobilized in advance, then humanized SMB0002 was allowed to be captured, and MTA (Sigma-Aldrich) or adenosine (Wako) was allowed to interact with humanized SMB0002. 50 mM Tris-HCl, 150 mM NaCl (Takara, T903), 0.02% (w/v) Tween20, 5% DMSO was used as the running buffer. MTA or adenosine was allowed to interact with humanized SMB0002 for 42 seconds at a flow rate of 100 μL/min and then dissociated from the antibody in the running buffer. The interaction was measured at 37° C., and the same buffer as the running buffer was used to dilute MTA or adenosine.
(§2) The dissociation constant KD (M) was calculated based on the binding rate constant ka (1/Ms) and the dissociation rate constant kd (1/s), which are kinetic parameters calculated from the sensorgrams obtained by the measurement. Alternatively, the dissociation constant KD (M) was calculated using steady state analysis. Biacore T200 Evaluation Software (GE Healthcare) was used to calculate each parameter.

[3] = Biacore T200: binding of humanized SMB0002 to adenosine; settings: 37° C.; read-out: Affinity KD, Adenosine
Method: as §1, §2

[4] = Biacore T200: rabbit B cell cloning antibodies, binding to MTA; settings: Biacore T200, 25° C.; read-out: Affinity KD, MTA
Method: (§3) The antibody of interest was captured on Sensor Chip Protein A (GE healthcare) with protein A pre-immobilized, or on an immobilized surface prepared by binding onto Streptavidin-immobilized Sensor chip SA (GE Healthcare) the Capture Select Biotin Anti-IgG-Fc (Hu) (Thermo fisher scientific), which is a biotinylated anti-human IgG CH1 molecule, and interacted with MTA (Sigma-Aldrich) or MTA analogs. As MTA analogs, adenosine (Wako) (measured concentration in tumor tissue: 182 nM) and S-(5′-adenosyl)-L-homocysteine, (SAH) (Sigma-Aldrich) (measured concentration in tumor tissue: 30 nM) were selected based on the structural similarity to MTA and the concentration in tumor tissue of tumor-bearing mice of an MTAP-deficient cell line. 20 mM ACES-NaOH, 150 mM NaCl, 0.05% Tween20, 0.05% DMSO was used as the running buffer. MTA or adenosine or SAH was allowed to interact at a flow rate of 30 μL/min for 120 seconds and then dissociated in the running buffer. The interaction was measured at 25° C. and the same buffer as the running buffer was used to dilute MTA and its analogs.
(§4) The dissociation constant […]) (M) was calculated based on the binding rate constant ka (1/Ms) and the dissociation rate constant kd (1/s), which are kinetic parameters calculated from the sensorgrams obtained by the measurement. Alternatively, the dissociation constant KD (M) was calculated using steady state analysis. […]

[5] = Biacore T200: rabbit B cell cloning antibodies, binding to adenosine; settings: Biacore T200, 25° C.; read-out: Affinity KD, Adenosine
Method: as §3, §4

[6] = Biacore T200: rabbit B cell cloning antibodies, binding to SAH; settings: Biacore T200, 25° C.; read-out: Affinity KD, SAH
Method: as §3, §4

[7] = Surface plasmon resonance: humanized MTA0303 and humanized MTA0330, binding to MTA; settings: humanized antibodies; 25° C.; read-out: Affinity KD, MTA
Excerpt: (§5) […] (GE Healthcare) was used to analyze binding to MTA and MTA analogs (adenosine, SAH) to verify whether humanized MTA0303 and humanized MTA0330 specifically bind to MTA.
as §3, with “(Sigma-Aldrich),” for “(Sigma-Aldrich)”, “or” for “or MTA analogs. As MTA analogs,”, “(Wako), or” for “(Wako) (measured concentration in tumor tissue: 182 nM) and”, “(Sigma-Aldrich).” for “(Sigma-Aldrich) (measured concentration in tumor tissue: 30 nM) were selected based on the structural similarity to MTA and the concentration in tumor tissue of tumor-bearing mice of an MTAP-deficient cell line.”, “MTA, or adenosine, or SAH.” for “MTA and its analogs.”
as §2, with “[…]” for “T200”

[8] = Surface plasmon resonance: humanized MTA0303 and humanized MTA0330, binding to adenosine; settings: humanized antibodies; 25° C.; read-out: Affinity KD, Adenosine
Excerpt: as §5
as §3, with “(Sigma-Aldrich),” for “(Sigma-Aldrich)”, “or” for “or MTA analogs. As MTA analogs,”, “(Wako), or” for “(Wako) (measured concentration in tumor tissue: 182 nM) and”, “(Sigma-Aldrich).” for “(Sigma-Aldrich) (measured concentration in tumor tissue: 30 nM) were selected based on the structural similarity to MTA and the concentration in tumor tissue of tumor-bearing mice of an MTAP-deficient cell line.”, “MTA, or adenosine, or SAH.” for “MTA and its analogs.”
as §2, with “[…]” for “T200”

[9] = Surface plasmon resonance: humanized MTA0303 and humanized MTA0330, binding to SAH; settings: humanized antibodies; 25° C.; read-out: Affinity KD, SAH
Excerpt: as §5
as §3, with “(Sigma-Aldrich),” for “(Sigma-Aldrich)”, “or” for “or MTA analogs. As MTA analogs,”, “(Wako), or” for “(Wako) (measured concentration in tumor tissue: 182 nM) and”, “(Sigma-Aldrich).” for “(Sigma-Aldrich) (measured concentration in tumor tissue: 30 nM) were selected based on the structural similarity to MTA and the concentration in tumor tissue of tumor-bearing mice of an MTAP-deficient cell line.”, “MTA, or adenosine, or SAH.” for “MTA and its analogs.”
as §2, with “[…]” for “T200”

hIL-6R [10] = target: T1, hIL-6R; assay: Surface plasmon resonance (Biacore T200): C03H-BH076N17/C03L-KT0 binding to hIL-6R under MTA or adenosine
Method: Using Biacore T200 (GE Healthcare), the effects of MTA and adenosine on the antigen-antibody reaction between C03H-BH076N17/C03L-KT0 and hIL-6R were evaluated. TBS, 0.02% (w/v) Tween20, pH 7.4 was used as the running buffer. ProA/G (Pierce) was immobilized onto Sensor Chip CM5 (GE Healthcare) by amine coupling, and after the antibody was immobilized on it, various antigens were allowed to interact as analytes, to observe changes in the antigen-antibody binding amount. The running buffer and a buffer in which either MTA or adenosine was added to the running buffer were used for antigen dilution, which were prepared in a series of stepwise concentrations. Biacore T200 Evaluation Software (GE Healthcare) was used to calculate the parameters.

B1: 6RS2T007H-F760mnN17/6RS2T007L-KT0: MTA-dependent anti-hIL-6R antibody; H-chain variable region SEQ ID NO: 57, L-chain variable region SEQ ID NO: 58 (antibody, V domains shown)
VH: QVQLVQSGAEVKKPGASVKVSCKVSNIVLMQHTYGWVRQPPGKGLEWIGIIGGDGHAWYPRWVKGRFTISKDNSKNQVVLTMTNMDPVDTATYYCARGGKDGFTNAWDPWGQGTLVTVSS
VL: DIQLTQSPSSLSASVGDRVTITCQSSQSVFNNNGLSWYQQKPGQPPKLLIYDASTLASGVPSRFSGSGSGTDFTLTINSLEAEDAATYYCHGSQATQIWWDNAFGGGTEVVVK
For B1, the “amount of antigen (hIL-6R) binding” value (hIL-6R [1]) was “changes stepwise according to the MTA concentration”.

B2: Humanized SMB0002: adenosine-binding antibody, library template; heavy chain variable region SEQ ID NO: 31, light chain variable region SEQ ID NO: 32 (antibody, V domains shown)
VH: QVQLVQSGAEVKKPGASVKVSCKVSGIDLTNYAMGWVRQPPGKGLEWIGIIGADSSTWYPSWVKGRFTISKDTSKNQVVLTMTNMDPVDTATYYCARGRFVGYTNAFDPWGQGTLVTVSS
VL: DIQLTQSPSSLSASVGDRVTITCQSSQSVWNNNYLSWYQQKPGQPPKLLIYDASTLASGVPSRFSGSGSGTDFTLTINSLEAEDAATYYCHGSYANSGWYDNAFGGGTEVVVK
B2 gave a Kd [2] of 3.8 µM and a Kd [3] of 64 nM.

B3: MTA0330: anti-MTA antibody from rabbit B cell cloning; H-chain variable region SEQ ID NO: 48, L-chain SEQ ID NO: 49 (antibody, V domains shown)
VH: QEQLVESGGDLVTPGASLTLTCKASGFSFSSSYWMCWVRQAPGKGLEWIACIYSGDGSTYYASWVNGRFTISKTSSTTVTLQMTSLTAADTATYFCARENIFGSGALNLWGPGTLVTVSS
VL: QAVVTQTPSPVSAAVGGTVTISCHSSKSVYSNNRLAWYQQKPGQPPKLLIYQASTLASGVASRFSGSGSGTQFTLTISGVQCDDAATYYCQGTYYSSGFYFAFGGGTEVVVK
For B3, the Kd [4] was 14.4 nM, the Kd [5] was 63.5 µM and the Kd [6] was 187 µM.

B4: MTA0303: anti-MTA antibody from rabbit B cell cloning; H-chain variable region SEQ ID NO: 46, L-chain SEQ ID NO: 47 (antibody, V domains shown)
VH: QSLEESGGDLVKPGASLTLTCTASGFSFSSAYWMCWVRQAPGKGLEWTACIFASAIYAGSGGSTYYASWAKGRFTISKTSSTTVTLQMTSLTAADTATYFCATGYGSSGGGFDELWGPGTLVTVSS
VL: AQVLTQTASSVSAAVGGTVTISCQSSESVYANRLSWYQQKPGQPPKLLIYSASTLPSGVPSRFKGSGSGTQFTLTISDLECDDVGTYYCAGLYSGNIPAFGGGTEVVVK
In the case of B4, the Kd [4] is reported as 2.46 nM, the Kd [5] is reported as 11.4 µM and the Kd [6] is reported as 119 µM.

B5: HumanizedMTA0330 (antibody, V domains shown)
VH: QVQLVESGGGLVQPGGSLRLSCSASGFTFSSSYWMCWVRQAPGKGLEWVGCIYSGDGSTYYASWVNGRLTISKDTSKSQVVLTMTNMDPVDTATYYCARENIFGSGALNLWGQGTLVTVSS
VL: DIQVTQSPSSLSASVGDRVTITCHSSKSVYSNNRLAWYQQKPGQPPKLLIYQASTLASGVPSRFSGSGSGTEFTLTISSLQPDDFATYYCQGTYYSSGFYFAFGQGTKVEIK
For B5, the Kd [7] was 8.88 nM, the Kd [8] was 44.8 µM and the Kd [9] was 84.7 µM.

B6: HumanizedMTA0303 (antibody, V domains shown)
VH: QVQLVESGGGLVKPGGSLRLSCAASGFTFSSAYWMCWVRQAPGKGLEWVACIFASAIYAGSGGSTYYASWAKGRLTISKDTSKNQVVLTMTNMDPVDTATYYCATGYGSSGGGFDELWGQGTLVTVSS
VL: EIVLTQSPATLSLSPGERATLSCQSSESVYANRLSWYQQKPGQPPKLLIYSASTLPSGIPARFSGSGSGTDFTLTISRLEPEDFAVYYCAGLYSGNIPAFGQGTKVEIK
B6 showed a Kd [7] of 10.8 nM, a Kd [8] of 41.4 µM and a Kd [9] of 211 µM.

B7: C03H-BH076N17/C03L-KT0: antibody binding hIL-6R MTA-dependently; heavy chain variable region SEQ ID NO: 54, light chain variable region SEQ ID NO: 55 (antibody, V domains shown)
VH: QVQLVQSGAEVKKPGSSVKVSCKASGGTFSSYAISWVRQAPGQGLEWMGGIIPIFGTANYAQKFQGRVTITADESTSTAYMELSSLRSEDTAVYYCARFHVMSSFEIWGQGTLVTVSS
VL: DIQMTQSPSSLSASVGDRVTITCRASQSISSYLNWYQQKPGKAPKLLIYAASSLQSGVPSRFSGSGSGTDFTLTISSLQPEDFATYYCLQFNNDPLTFGGGTKVEIK
For B7, the “amount of binding to hIL-6R” value (hIL-6R [10]; different concentrations of MTA) was “showed stronger binding activity to hIL-6R as MTA concentration increased” and the “amount of binding to hIL-6R” value (hIL-6R [10]; different concentrations of adenosine) was “no binding to hIL-6R was observed at any concentration”.
